# Publication PMC3396760
# B1: Crumbs3a (Crb3a): N36D (protein)
# parent chain: MANPGLGLLLALGLPFLLARWGRAWGQIQTTSANENSTVLPSSTSSSSDGNLRPEAITAIIVVFSLLAALLLAVGLALLVRKLREKRQTEGTYRPSSEEQVGARVPPTPNLKLPPEERLI
# Assay: in-culture cell surface labelling with cell-impermeable BG-682
# Settings: glycan lost; control: wild type SNAP-Crb3a
protein,measurement,value
B1,localisation_or_trafficking,no change
